Data reported in article PMC10517016, “SCARB2 drives hepatocellular carcinoma tumor initiating cells via enhanced MYC transcriptional activity” (Nature Communications, 2023).

Biological target: T1, Purified His-tagged MYC (UniProt P01106 1-454)
T1 construct: MYC, purified recombinant protein bought from Origene; also called MYC (TP760019); source: bought: Origene (TP760019), purified
Assay: co-IP; in vitro: 5 ug of each purified protein mixed in 100 ul of 1% NP-40, 120 mM NaCl, 40 mM tris-HCl pH 7.4, 1.5 mM sodium orthovanadate, 50 mM sodium fluoride, 10 mM sodium pyrophosphate, protease inhibitors, 6 h at 4 °C, then immunoprecipitation
Conditions: both partners purified

T1 sequence (P01106 whole entry): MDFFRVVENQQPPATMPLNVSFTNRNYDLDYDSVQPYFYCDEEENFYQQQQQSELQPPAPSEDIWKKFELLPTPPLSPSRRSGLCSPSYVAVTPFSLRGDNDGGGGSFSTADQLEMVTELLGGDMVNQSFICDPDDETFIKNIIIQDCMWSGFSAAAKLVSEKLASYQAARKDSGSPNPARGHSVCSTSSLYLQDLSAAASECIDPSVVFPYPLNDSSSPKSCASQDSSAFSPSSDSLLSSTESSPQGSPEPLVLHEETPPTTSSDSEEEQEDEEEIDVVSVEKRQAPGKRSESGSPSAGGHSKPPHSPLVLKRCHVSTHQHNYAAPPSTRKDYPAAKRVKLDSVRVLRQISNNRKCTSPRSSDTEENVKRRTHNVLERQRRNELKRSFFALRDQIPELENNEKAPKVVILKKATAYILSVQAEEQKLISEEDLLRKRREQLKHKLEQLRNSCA

B1: Purified GST-tagged HDAC3 (enzyme, UniProt O15379 1-428, looked up)
chain: MAKTVAYFYDPDVGNFHYGAGHPMKPHRLALTHSLVLHYGLYKKMIVFKPYQASQHDMCRFHSEDYIDFLQRVSPTNMQGFTKSLNAFNVGDDCPVFPGLFEFCSRYTGASLQGATQLNNKICDIAINWAGGLHHAKKFEASGFCYVNDIVIGILELLKYHPRVLYIDIDIHHGDGVQEAFYLTDRVMTVSFHKYGNYFFPGTGDMYEVGAESGRYYCLNVPLRDGIDDQSYKHLFQPVINQVVDFYQPTCIVLQCGADSLGCDRLGCFNLSIRGHGECVEYVKSFNIPLLVLGGGGYTVRNVARCWTYETSLLVEEAISEELPYSEYFEYFAPDFTLHPDVSTRIENQNSRQYLDQIRQTIFENLKMLNHAPSVQIHDVPADLLTYDRTDEADAEERGPEENYSRPEAPNEFYDGDHDNDKESDVEI
notes: Histone deacetylase 3, purified recombinant protein bought from Sino Biological; also called HDAC3 (11511-H20B); source: bought: Sino Biological (11511-H20B), purified
binding result: binds
